Data as given in patent US20150306234.
Numbering of substitutions follows the chain as printed.

Experiments:
BDD FVIII mutein S2094C = tested on: T1, BDD FVIII mutein S2094C
T1 sequence: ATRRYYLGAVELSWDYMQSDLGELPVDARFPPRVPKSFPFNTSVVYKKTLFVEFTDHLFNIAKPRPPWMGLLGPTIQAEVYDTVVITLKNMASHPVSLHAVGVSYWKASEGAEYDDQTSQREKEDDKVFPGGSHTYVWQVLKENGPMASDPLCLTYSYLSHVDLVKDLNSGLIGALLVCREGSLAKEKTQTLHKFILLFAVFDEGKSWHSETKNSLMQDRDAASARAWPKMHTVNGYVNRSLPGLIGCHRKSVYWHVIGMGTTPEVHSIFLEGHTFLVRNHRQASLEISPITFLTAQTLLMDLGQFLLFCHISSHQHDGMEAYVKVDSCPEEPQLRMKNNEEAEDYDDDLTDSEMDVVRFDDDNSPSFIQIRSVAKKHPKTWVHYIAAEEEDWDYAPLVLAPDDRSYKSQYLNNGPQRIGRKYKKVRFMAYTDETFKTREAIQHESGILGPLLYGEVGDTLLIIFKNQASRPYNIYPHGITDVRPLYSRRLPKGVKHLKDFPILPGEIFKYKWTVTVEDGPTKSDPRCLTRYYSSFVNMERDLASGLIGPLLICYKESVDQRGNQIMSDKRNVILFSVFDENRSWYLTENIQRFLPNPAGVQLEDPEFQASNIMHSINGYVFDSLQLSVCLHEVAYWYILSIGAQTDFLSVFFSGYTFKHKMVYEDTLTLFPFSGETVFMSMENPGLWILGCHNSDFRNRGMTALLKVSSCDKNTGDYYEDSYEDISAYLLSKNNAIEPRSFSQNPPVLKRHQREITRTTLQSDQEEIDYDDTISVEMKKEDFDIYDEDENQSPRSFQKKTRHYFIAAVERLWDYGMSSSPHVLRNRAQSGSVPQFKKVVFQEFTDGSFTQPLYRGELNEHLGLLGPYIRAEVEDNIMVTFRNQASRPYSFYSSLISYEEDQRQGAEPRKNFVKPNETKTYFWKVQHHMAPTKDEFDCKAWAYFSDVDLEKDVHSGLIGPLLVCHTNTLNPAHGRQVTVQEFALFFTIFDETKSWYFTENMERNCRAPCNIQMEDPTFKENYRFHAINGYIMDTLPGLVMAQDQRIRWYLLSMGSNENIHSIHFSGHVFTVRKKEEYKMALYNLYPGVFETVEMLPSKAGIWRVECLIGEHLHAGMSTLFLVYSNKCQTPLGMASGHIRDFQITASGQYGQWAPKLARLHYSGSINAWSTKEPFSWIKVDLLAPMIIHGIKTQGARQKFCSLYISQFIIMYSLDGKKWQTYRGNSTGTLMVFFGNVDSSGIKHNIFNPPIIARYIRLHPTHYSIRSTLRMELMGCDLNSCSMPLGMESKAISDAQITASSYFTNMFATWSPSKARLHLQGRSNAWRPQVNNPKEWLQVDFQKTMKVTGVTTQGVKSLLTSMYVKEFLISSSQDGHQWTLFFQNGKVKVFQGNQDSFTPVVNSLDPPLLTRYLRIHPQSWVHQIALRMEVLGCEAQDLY

BDD FVIII mutein F2093C = tested on: T2, BDD FVIII mutein F2093C
T2 sequence: T1 sequence with F1199C, C1200S

Substance: thrombin (Haematologic Technologies, Essex Junction, Vt.)
- thrombin cleavage, SDS-PAGE with silver staining (BDD FVIII mutein S2094C): Thrombin digestion of the muteins and control produced the expected cleavage fragments.
- thrombin cleavage, SDS-PAGE with silver staining (BDD FVIII mutein F2093C): Thrombin digestion of the muteins and control produced the expected cleavage fragments.
